Columns and labels:
[1] = biological target: recombinant human Fc gamma RIIIa (CD16a) 158V (human, UniProt P08637 17-208)
Sequence of recombinant human Fc gamma RIIIa (CD16a) 158V (P08637 17-208 F176V limits assumed): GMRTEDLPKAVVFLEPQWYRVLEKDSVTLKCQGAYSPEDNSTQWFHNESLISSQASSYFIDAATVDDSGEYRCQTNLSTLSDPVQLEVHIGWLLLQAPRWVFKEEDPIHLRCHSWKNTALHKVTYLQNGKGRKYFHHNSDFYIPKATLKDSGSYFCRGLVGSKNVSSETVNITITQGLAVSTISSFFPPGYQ

B1: B19c66 (antibody, human IgG1, kappa)
light: not shown
heavy: not shown
chain: CPPCPAPELLGGPSVFLFPPKPKDTLMISRTPEVTCVVVDVSHEDPEVKFNWYVDGVEVHNAKTKPREEQYNSTYRVVSVLTVLHQDWLNGKEYKCKVSNKALPAPIEKTISKAKGQPREPQVYVYPPSRDELTKNQVSLTCLVKGFYPSDIAVEWESNGQPENNYKTTPPVLDSDGSFALVSKLTVDKSRWQQGNVFSCSVMHEALHNHYTQKSLSLSPGK
- Kd (CD19 (target of Table 9)): 21.8 nM
- Kd [1]: 234 nM
